Ten molecules from US12427188B2, “Pyocyanine demethylases and related phenazine degrading agents compositions, methods and systems for interfering with viability of bacteria” (priority 2020, dated 2025) can be followed below.

As a reminder, the Km is the concentration of substrate that gives half-maximal velocity. A word on the kcat: it is the maximal rate divided by the concentration of active sites.

Series [1] is described as follows: Continuous spectrophotometric PYO demethylation assay (specific activity and kinetics of PodA). The format is biochemical. The note with it: for catalytic efficiency compared with PodA^WT: Michaelis-Menten kinetics, 3 μM protein. The procedure: Specific activity and kinetics of PodA. To determine specific activity and kinetic parameters of PodA for PYO, a continuous spectrophotometric assay monitoring the absorbance of PYO (690 nm) was utilized. Briefly, assays were performed at 25° C. in 100 μL reaction volumes in 96-well plates and reactions were monitored at 690 nm over 10 min. Reaction mixtures contained Phosphate buffer (50 mM, pH 6.0), ethylene glycol (1%, v/v), protein (3 μM) and substrate (for specific activity, 100 μM, for kinetics, varying). Data were acquired using the SpectraMax® M3 Microplate Reader (Molecular Devices) using the Soft Max Pro software every 10 s over 10 min. Path lengths for each well were calculated using Soft Max Pro endpoint readings and slopes were corrected for path lengths of 1 cm.
Specific activity was calculated from the slope of the linear range of (ΔOD690 min^−1) using Beer's Law (A=εcl) with a path length of 1 cm and the molar extinction coefficient of PYO (4,130 M^−1 cm^−1). Equation was solved for c, giving specific activity in nmol min^−1 mg^−1 of PodA. For kinetic parameters, graphs of initial velocity (μM s^−1) versus substrate concentration (μM) were plotted using Prism v8 (GraphPad). The Michaelis-Menten kinetics model was used to determine Km and Vmax. The turnover number (kcat) was determined using the following equation: Vmax=kcat[E], where [E] was the concentration of PodA added. All spectrophotometric assays mentioned above were completed thrice, each in technical triplicate with a representative data set shown. Error bars represent standard deviation as calculated by Prism v8 (GraphPad). Standard deviation for kcat and Kcat KM^−1 was calculated using standard formulas for propagation of error.

Series [2] in a line: Protein yield of PodA variants purified from inclusion bodies of overexpression culture. Particulars: purified from inclusion bodies, per L of E. coli overexpression culture. The procedure:
Protein overproduction and purification of soluble and inclusion body fractions. Plasmids coding for proteins of interest were transformed into E. coli BL21 […]. […]. Cultures were grown at 37° C. with shaking to an optical density of 0.4 (OD600 nm) and plasmid expression was induced with IPTG (50 μM) and shaken overnight at 16° C. Cells were harvested by centrifugation at 5,000×g for 10 min in a Beckman Coulter Avanti J-20 XOI refrigerated centrifuge using a JLA-8.1000 rotor at 4° C. Cell pellets were stored at −80° C. until used.
For purification of PodA from inclusion bodies, the pellets remaining following lysis and centrifugation at 40,000×g were resuspended in 20 mL of detergent buffer [50 mM HEPES (pH 7.5) and 1% Triton-X (v/v)] using a Bio-gen PRO200 cell homogenizer (PRO Scientific). Sample was spun for 15 min at 40,000×g at 4° C. in a Beckman Coulter Avanti centrifuge with a JA-25.50 rotor. Supernatant was discarded and the remaining cell pellet was resuspended in 5 mL of buffer [50 mM HEPES (pH 7.5), 500 mM NaCl] using a cell homogenizer, supplemented with lysozyme (200 μg mL^−1), and incubated for 10 min. Volume was increased to 20 mL with HEPES (50 mM, pH 7) and sample was spun for 40,000×g at 4° C. for 15 min. Supernatant was discarded and pellet was homogenized in 10 mL of denaturing buffer 50 mM HEPES (pH 7.5), 500 mM NaCl, and 8M urea) and incubating rocking overnight. The sample was spun at for 40,000×g at 25° C. for 30 min and supernatant was incubated with 1 mL HisPur Ni-NTA resin (Thermo Fisher Scientific) on a rocking platform for 10 min. Beads were allowed to settle without shaking, supernatant was discarded, and resin was pipetted into glass gravity columns. Resin was washed with 15 mL of denaturing buffer, followed by an elution with denaturing buffer supplemented with imidazole (500 mM). Fractions were analyzed by SDS-PAGE and those containing protein were combined into SnakeSkin 3.5 K MWCO dialysis tubing (Thermo Fisher Scientific). Urea was slowly dialyzed out in HEPES (50 mM, pH 7.5) and NaCl (500 mM) by lowing urea concentrations by 1 M increments. Each step was dialyzed at RT for 30 min. Protein was dialyzed in HEPES (50 mM, pH 7.5), NaCl (500 mM), and imidazole (20 mM) overnight at 4° C. The following day, protein was cleaved for 3 h at 25° C. with TEV protease (1:50 mg:mg ratio of TEV to PodA). The sample was applied to a HisPur gravity column and cleaved protein in the flow thru was confirmed by SDS-PAGE. Cleaved PodA protein was then dialyzed for storage for 3 h at 4° C. in HEPES (50 mM pH 7.5), NaCl (250 mM) and finally in HEPES (50 mM, pH 7.5), NaCl (100 mM), and glycerol (20%, v/v). Protein concentration was established on a NanoDrop™ using the extinction coefficient and MW of each protein. Protein was drop frozen in LN2 and stored at −80° C. until use.

The mark [3] stands for this setting: pH 6, 1% ethylene glycol, PodA 3 μM, substrate PYO.

B1: PodA8: Designed PodA41-162 variant: A53N, I73R, A87V, T91V, A129V (protein)
chain: VTMTLDVKNDQVNKHDFGKPGMDVGDMDIFSDRLSVDGKQVGYDGGVCFFVNVTPDNPMTYCELTIHLDAGEIFARSLTPHTLAPFTMVITGGTGEYANSKGELTVSGVATPDEKYELKLTK
For B1, in series [1], the “catalytic efficiency compared with PodA^WT” value was “no change in catalytic efficiency”. Further, the “PYO demethylation activity relative to wild type” value in series [1] (PYO 50 μM, PodA variants 3 μM) was “wild-type activity was maintained”. This molecule also showed a Yield in series [2] of 2.1 mg/L^−1.

B2: PodA6: Designed PodA41-162 variant: I73R, A87V, T91V, M99V, A129T (protein)
chain: VTMTLDVKNDQVAKHDFGKPGMDVGDMDIFSDRLSVDGKQVGYDGGVCFFVNVTPDNPVTYCELTIHLDAGEIFARSLTPHTLAPFTMTITGGTGEYANSKGELTVSGVATPDEKYELKLTK
B2 displayed a Yield in series [2] of 4.4 mg/L^−1.

B3: PodA2: Designed PodA41-162 variant: I73T, A87V, T91V, M99V, A129V (protein)
chain: VTMTLDVKNDQVAKHDFGKPGMDVGDMDIFSDTLSVDGKQVGYDGGVCFFVNVTPDNPVTYCELTIHLDAGEIFARSLTPHTLAPFTMVITGGTGEYANSKGELTVSGVATPDEKYELKLTK
Molecule B3 returned a Yield in series [2] of 16.1 mg/L^−1.

B4: PodA3: Designed PodA41-162 variant: I73K, A87V, T91V, M99V, A129V (protein)
chain: VTMTLDVKNDQVAKHDFGKPGMDVGDMDIFSDKLSVDGKQVGYDGGVCFFVNVTPDNPVTYCELTIHLDAGEIFARSLTPHTLAPFTMVITGGTGEYANSKGELTVSGVATPDEKYELKLTK
B4 gave a Yield in series [2] of 9.45 mg/L^−1.

B5: PodA7: Designed PodA41-162 variant: I73L, A87I, T91V, M99T, A129V (protein)
chain: VTMTLDVKNDQVAKHDFGKPGMDVGDMDIFSDLLSVDGKQVGYDGGICFFVNVTPDNPTTYCELTIHLDAGEIFARSLTPHTLAPFTMVITGGTGEYANSKGELTVSGVATPDEKYELKLTK
Take B5: the Yield in series [2] worked out at 4.1 mg/L^−1.

B6: PodA9: Designed PodA41-162 variant: I73K, A87V, T91V, A129V, K141T (protein)
chain: VTMTLDVKNDQVAKHDFGKPGMDVGDMDIFSDKLSVDGKQVGYDGGVCFFVNVTPDNPMTYCELTIHLDAGEIFARSLTPHTLAPFTMVITGGTGEYANSTGELTVSGVATPDEKYELKLTK
B6: the Yield in series [2] was determined as 1.28 mg/L^−1.

B7: PodA5: Designed PodA41-162 variant: I73L, A87I, M99V, A129V, K141T (protein)
chain: VTMTLDVKNDQVAKHDFGKPGMDVGDMDIFSDLLSVDGKQVGYDGGICFFTNVTPDNPVTYCELTIHLDAGEIFARSLTPHTLAPFTMVITGGTGEYANSTGELTVSGVATPDEKYELKLTK
In turn, B7 gave a Yield in series [2] of 9.9 mg/L^−1.

B8: WT PodA30-162: Truncated wild-type pyocyanin demethylase PodA, residues 30-162, SEQ ID NO: 2 (protein)
chain: MDGRGGRSTTEPVTMTLDVKNDQVAKHDFGKPGMDVGDMDIFSDILSVDGKQVGYDGGACFFTNVTPDNPMTYCELTIHLDAGEIFARSLTPHTLAPFTMAITGGTGEYANSKGELTVSGVATPDEKYELKLTKAENLYFQ
modifications: Sybthetic Polypeptide
As for B8, the “pH of optimal activity” value in series [1] (buffers pH 5.5-10.0, PodA 3 μM, PYO 100 μM) came out at 6. In addition, the “Effect of salts (NaCl and KCl) on activity” value in series [1] (cystic fibrosis sputum range, 66 mM Na+, 15 mM K+) was “did not inhibit or enhance”. Further, the “Effect of higher glycerol concentrations on the activity increase” value in series [1] (glycerol 5 to 20%) is listed as “reversed this activity increase”. Besides, the Km in series [1] (setting [3]) is 372 µM. Also, the catalytic efficiency in series [1] (setting [3]) is 4.73±0.24×10^2 M^−1 s^−1; in series [1] (protein from soluble fraction), 1.05±0.093×10^2 M^−1 s^−1; in series [1] (protein purified from inclusion bodies, denatured and refolded), 1.14±0.25× 10^2 M^−1 s^−1. In addition, the turnover number (kcat) in series [1] (setting [3]) was 0.176 ± 0.003 s⁻¹. Moreover, the “Effect of slight increase in viscosity (ethylene glycol or glycerol 1% v/v) on activity” value in series [1] (pH 6, PodA 3 μM, PYO 100 μM) is listed as “enhanced”.

B9: PodA1030-162: PodA10 of SEQ ID NO: 2: A24N, I44T, A58V, M70V, A100T (protein)
chain: MDGRGGRSTTEPVTMTLDVKNDQVNKHDFGKPGMDVGDMDIFSDTLSVDGKQVGYDGGVCFFTNVTPDNPVTYCELTIHLDAGEIFARSLTPHTLAPFTMTITGGTGEYANSKGELTVSGVATPDEKYELKLTKAENLYFQ
modifications: Sybthetic Polypeptide
As to B9, the “catalytic efficiency compared with PodA^WT” value in series [1] is on record as “slight increase in efficiency”.

B10: PodA830-162: PodA8 of SEQ ID NO: 2: A24N, I44R, A58V, T62V, A100V (protein)
chain: MDGRGGRSTTEPVTMTLDVKNDQVNKHDFGKPGMDVGDMDIFSDRLSVDGKQVGYDGGVCFFVNVTPDNPMTYCELTIHLDAGEIFARSLTPHTLAPFTMVITGGTGEYANSKGELTVSGVATPDEKYELKLTKAENLYFQ
modifications: Sybthetic Polypeptide
As for B10, the “catalytic efficiency compared with PodA^WT” value in series [1] is reported as “no change”.
